Measured values reported in article PMC6457526, “Structure-based molecular characterization and regulatory mechanism of the LftR transcription factor from Listeria monocytogenes: Conformational flexibilities and a ligand-induced regulatory mechanism” (PLoS ONE, 2019).

Columns and labels:
LftR = biological target: T1, LftR (Listeria monocytogenes, UniProt L8DXR9); experiment: fluorescence polarization assay; assay type: binding
T1 construct: full length, 108 residues, expressed in E. coli; homodimer

[1] = biological target: the molecule itself; experiment: SEC; Superdex 200 10/300, 20 mM HEPES pH 7.4, 150 mM NaCl; apparent molecular weight from gel filtration standards
LftR L69A = LftR L69A (Listeria monocytogenes, UniProt Q8Y923 1-108, L69A); experiment: fluorescence polarization; FP: 28-mer OP-1 with 5' fluorescein, ex 485 nm / em 535 nm, single-site fit (Prism 5); buffer, salt, pH and temperature of FP and EMSA not given in the material; conditions: protein: recombinant; tags: C-terminal His6; chain copies: 2; label: 5' fluorescein on top strand
LftR K56A = LftR K56A (Listeria monocytogenes, UniProt Q8Y923 1-108, K56A); experiment: as above; conditions: protein: recombinant; tags: C-terminal His6; chain copies: 2; label: 5' fluorescein on top strand
LftR Y28A = LftR Y28A (Listeria monocytogenes, UniProt Q8Y923 1-108, Y28A); experiment: as above; conditions: protein: recombinant; tags: C-terminal His6; chain copies: 2; label: 5' fluorescein on top strand
LftR R53A = LftR R53A (Listeria monocytogenes, UniProt Q8Y923 1-108, R53A); experiment: as above; conditions: protein: recombinant; tags: C-terminal His6; chain copies: 2; label: 5' fluorescein on top strand
LftR K9A = LftR K9A (Listeria monocytogenes, UniProt Q8Y923 1-108, K9A); experiment: as above; conditions: protein: recombinant; tags: C-terminal His6; chain copies: 2; label: 5' fluorescein on top strand
LftR wildtype = LftR wildtype (Listeria monocytogenes, UniProt Q8Y923 1-108); experiment: as above; conditions: protein: recombinant; tags: C-terminal His6 (LftRCtH); chain copies: 2; label: 5' fluorescein on top strand

`CC[n+]1c(-c2ccccc2)c2cc(N)ccc2c2ccc(N)cc21` [ethidium bromide] gave a Kd (LftR) of 3700 ± 1170 nM.

B1: LftR_(ΔNtH), tag-free LftR protein after thrombin removal of the N-terminal His6 tag (natural protein)
chain: GSAKDPMKGLTELLKGSLEGMILERISRGETYGYEITKYLNDLGFDEIVEGTVYTILVRLEKKGLVEIEKKKSELGPPRKFYTLSPAGEEELAIFWKRWDFIQGKIMQVKGGQA
notes: six additional vector-derived amino acids left at the N-terminus after thrombin cleavage (numbered -5 to 0 in the structure); LftR, PadR-2 subfamily transcription factor of Listeria monocytogenes, encoded by lmo0719; 108 residues; Expressed from a modified pET49b vector with N-terminal His6 tag and thrombin site; also called Listeria protein facilitating invasion/transcriptional regulator; …
In the case of B1, the “stoichiometry N” value [1] is reported as 2.

B2: LftRCtH, LftR with a C-terminal His6 tag (natural protein)
chain: MKGLTELLKGSLEGMILERISRGETYGYEITKYLNDLGFDEIVEGTVYTILVRLEKKGLVEIEKKKSELGPPRKFYTLSPAGEEELAIFWKRWDFIQGKIMQVKGGQA
notes: LftR, PadR-2 subfamily transcription factor of Listeria monocytogenes, encoded by lmo0719; 108 residues; Cloned NdeI/XmaI into a modified pET49b vector with a C-terminal His6 tag; source: E. coli BL21 (DE3), purified (Ni-NTA); not shown: His6, C-terminal, kept
B2 was tested, and the “stoichiometry N” value [1] was 2.

B3: OP-1 28-mer dsDNA (FP) (dsDNA)
DNA 1: GTATTACTATATACTTGTACCTAGTAAC
DNA 2: GTTACTAGGTACAAGTATATAGTAATAC
B3 was tested, and the Kd (LftR L69A) was 62.6 ± 1.3 nM, the Kd (LftR K56A) was 28.7 ± 2.3 nM and the Kd (LftR Y28A) was 89.6 ± 1.9 nM. The Kd (LftR R53A) was 40.1 ± 0.8 nM, the Kd (LftR K9A) was 197 ± 12.1 nM and the Kd (LftR wildtype) was 6.2 ± 1.5 nM.
